“And” between values parts separate entries of the source, which are not always exact repeats. Identical values can stand only once.
How the values were obtained:
[1] = Canine hematology one week after administration; assay type: in vivo, dogs (beagles and hounds); details: dogs
Description: Canine pharmacokinetics and toxicities. […] If noted, supportive care was provided.

[2] = system: C26 murine colon adenocarcinoma cells
Description: C26 murine colon adenocarcinoma cells were seeded (5000 cells/well) in a 96-well plate. After 24 h, cells were treated in triplicate with 3-fold serial dilutions of drugs beginning with 100 uM. After 72 h incubation, 20 μL of CellTiter 96 AQueous™ (Promega; Madison, WI) 3-(4,5-dimethlthiazol-2-yl)-5-(3-carboxymethoxphenyl)-2-(4-sulfophenyl)-2H-tetrazolium (MTS) reagent was added to each well followed by 3 h incubation at 37° C. The absorbance at 490 nm was determined using a Victor3™ microplate reader (Perkin Elmer; Waltham, MA). For each plate, blank wells (with no cells) were defined as 0% viability and wells treated with PBS were defined as 100% viability. The background absorbance at 490 nm was corrected by subtracting the average absorbance of the blank wells from each well. The percent viability was defined as the absorbance of each well normalized to the absorbance of wells treated with PBS. Inhibitory concentration (IC 50) values were calculated using a four-parameter logistic fit in the Prism program (GraphPad Software, San Diego, CA, USA).

[3] = pH dependent drug release
Description: pH dependent drug release. […] Samples were incubated at 37° C. for 0.0, 0.25, […], 0.5, 1, 2, 4, 6, or 24 hr and were neutralized by addition of pH 7.4 (0.1 M NaH2PO4). […] Eluting peaks were detected with a UV-Visible detector set at 490 nm. […] HPLC data was quantified by integrating the area under the peak corresponding to the free drug. […] For pH 5.0 samples, data points were fit by nonlinear regression to a first order release model: F %, released=a[1−exp(−ln(2) t/t1/2)] (1) where t is the time (hrs) after incubation, t1/2 is the half-life (hrs) of release, and a (%) is the maximum extent of drug release.

[4] = Biodistribution in C26 tumor-bearing mice; assay type: in vivo, Balb/C mice; details: 2 h and 24 h time points
Description: Cell culture and tumor inoculation.
Biodistribution. […] At 2 and 24 h after injection, tissues (tumor, muscle, heart, lung, liver, spleen and kidney) were removed, weighed and suspended in 1.0 mL acidified isopropanol (75 mM HCl, 10% water, 90% isopropanol). Tissues were then homogenized using 2 mm diameter zirconia beads and a MiniBeadbeater-1TM (Biospec; Bartlesville, OK) for 2 min at 5,000 beats per minute and were incubated overnight at 4° C. in the dark. The isopropanol extracts were then vortexed, and centrifuged (14,000 RPM, 10 min, 4° C.) and 125 uL of the supernatant was loaded onto a black 96-well plate (BD Biosciences) in duplicate. […] To correct for background tissue fluorescence, tissues were removed from three untreated control mice and were processed similarly. For each tissue, a background (counts per mg tissue) curve was created using 2-fold dilutions of the processed tissues in acidified isopropanol.

[5] = one week after administration, individual subjects

B1: ABDN-CP-DOX (conjugate)
chain: LAEAKVLANRELDKYGVSDYYKNLINNAKTVEGVKALIDEILAALPVPGAGVPGAGVPGAGVPGAGVPGAGVPGAGVPGAGVPGAGVPGAGVPGAGVPGAGVPGAGVPGAGVPGAGVPGAGVPGAGVPGAGVPGAGVPGAGVPGAGVPGAGVPGAGVPGAGVPGAGVPGAGVPGAGVPGAGVPGAGVPGAGVPGAGVPGAGVPGAGVPGAGVPGAGVPGAGVPGAGVPGAGVPGAGVPGAGVPGAGVPGAGVPGAGVPGAGVPGAGVPGAGVPGAGVPGAGVPGAGVPGAGVPGAGVPGAGVPGAGVPGAGVPGAGVPGAGVPGAGVPGAGVPGAGVPGAGVPGAGVPGAGVPGAGVPGAGVPGAGVPGAGVPGAGVPGAGVPGAGVPGAGVPGAGVPGAGVPGAGVPGAGVPGAGVPGAGVPGAGVPGAGVPGAGVPGAGVPGAGVPGAGVPGAGVPGAGVPGAGVPGAGVPGAGVPGAGVPGAGVPGAGVPGAGVPGAGVPGAGVPGAGVPGAGVPGAGVPGAGVPGAGVPGAGVPGAGVPGAGVPGAGVPGAGVPGAGVPGAGVPGAGVPGAGVPGAGVPGAGVPGAGVPGAGVPGAGVPGAGVPGAGVPGAGVPGAGVPGAGVPGAGVPGAGVPGAGVPGAGVPGAGVPGAGVPGAGVPGAGVPGAGVPGAGVPGAGVPGAGVPGAGVPGAGVPGAGVPGAGVPGAGVPGAGVPGAGVPGAGVPGAGVPGAGVPGAGVPGAGVPGAGVPGAGVPGAGCGGCGGCGGCGGCGGCGGCGGCGG
- Abonormal Lymphs [1, 5]: 0.157 10^3/μL and 0.561 10^3/μL
- Hematocrit [1, 5]: 42.7% and 43.9%
- Hemoglobin [1, 5]: 14.7 g/dL and 14.6 g/dL
- Lymphocytes [1, 5]: 1.572 10^3/μL and 1.122 10^3/μL
- MCH [1, 5]: 24.6 pg and 23.6 pg
- MCHC [1, 5]: 34.3 g/dL and 33.2 g/dL
- MCV [1, 5]: 71.7 fL and 71 fL
- MPV [1, 5]: 12.2 fL and 11.9 fL
- Monocytes [1, 5]: 0.314 10^3/μL and 0.21 10^3/μL
- PCT [1, 5]: 0.28% and 0.25%
- Packed Cell-Volume [1, 5]: 42%
- Plasma Protein [1, 5]: 6.2 g/dL and 5.8 g/dL
- Platelets [1, 5]: 228 X10^3/μL and 208 X10^3/μL
- RBC [1, 5]: 5.97 X10^6/μL and 6.19 X10^6/μL
- RDW [1, 5]: 12.8% and 11.7%
- Reticulocyte # [1, 5]: 0.025 X10^6/μL and 0.014 X10^6/μL
- Reticulocyte % [1, 5]: 0.43% and 0.23%
- Reticulocyte Absolute [1, 5]: 25000 µL⁻¹ and 14000 µL⁻¹
- Segmented Neutrophils [1, 5]: 5.502 10^3/μL and 4.276 10^3/μL
- WBC [1, 5]: 7.86 X10^3/μL and 7.01 X10^3/μL
- abnormalities in blood hematology (in words) ([1]; one week after infusion): no hematology or serum chemistry abnormalities
- IC50 [2]: 310 nM
- in vitro drug release (in words) ([3]; acidic conditions, pH 5.0, 37° C.): released the loaded DOX
- in vitro drug release / stability (in words) ([3]; pH 7.4, 37° C.): remained stable
- distribution to organs of the reticuloendothelial system i.e. liver and spleen (in words) [4]: significantly smaller than that of CP-DOX micelles
